Results taken from paper doi:10.1101/2020.02.10.941963.
Like-named read-outs stand apart in the source and are kept apart here.

Experiments:
[1] = biological target: T1, Rv1019 (TetR family regulator) (Mycobacterium tuberculosis H37Rv) (UniProt P96381); test: EMSA
T1 sequence: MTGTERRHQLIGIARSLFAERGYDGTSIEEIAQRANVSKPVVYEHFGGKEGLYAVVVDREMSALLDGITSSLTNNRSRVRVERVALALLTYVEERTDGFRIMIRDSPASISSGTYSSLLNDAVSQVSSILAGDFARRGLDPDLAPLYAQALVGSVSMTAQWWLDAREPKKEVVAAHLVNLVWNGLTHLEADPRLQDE

[2] = biological target: Rv1019, putative TetR family transcriptional regulator of Mycobacterium tuberculosis H37Rv (Mycobacterium tuberculosis H37Rv); test: cross-linking
[3] = biological target: Rv1019, putative TetR family transcriptional regulator of Mycobacterium tuberculosis H37Rv (Mycobacterium tuberculosis H37Rv); test: native gel or EMSA
[4] = biological target: T2, Rv1019 (TetR family regulator) (Mycobacterium tuberculosis H37Rv, UniProt P96381 1-197); test: EMSA
T2 sequence: T1 sequence

[5] = biological target: T2, Rv1019 (TetR family regulator); test: EMSA; remark: listed apart in the source

CCTGGCGCGCGTCACCCGCGTCGGGTTTTCCGGCGCCTTATCCGGCCCTTTATCCGGTCCGGCCACATCAACAAGGGTATCGGTTTGCGTGGGGCCGGTGGGTAGACGGCGACAGCGTTGACTGTGCTGACGGCGTTGACACCGTCTAAAGTCACATCGATGTGCAATCCGTCGTGGTGTAATCGGCAGCACCTCTGATTTTGGTTCAGATAGTTCAGGTTCGAGTCCTGGCGACGGAGCTTCAAGGAGGGTTGATGACGTTTCCTGGTGACACCGCGGTCCTGGTCCTAGCGGCCGGGC (double strand) [Fragment I, Rv1019 upstream -300 to -1]
binding [1]: binds

Rv1019, putative TetR family transcriptional regulator of Mycobacterium tuberculosis H37Rv (natural protein)
stoichiometry N [2]: 2
stoichiometry N [3]: 2

B1: Rv1019 18 bp inverted repeat (Palindrome Oligo S1/S2) (dsDNA)
DNA 1: TGACTTTAGACGGTGTCAACGCCGTCAGCACAGT
DNA 2: ACTGTGCTGACGGCGTTGACACCGTCTAAAGTCA
binding result [4]: binds

B2: M. smegmatis cognate site (MS Pal S1/S2) (dsDNA)
DNA 1: GGCTTGACGTGCGCGAACCGTCGAAAG
DNA 2: CTTTCGACGGTTCGCGCACGTCAAGCC
binding result [5]: binds
